Assay results taken from patent US9416162B2, “Peptides having reduced toxicity that stimulate cholesterol efflux” (The Regents of the University of California, priority 2013, dated 2016).
Non-standard residues stand in square brackets, D forms with d. No end group written: not given here. Cit = NC(=O)NCCC[C@H](N)C(=O)O

Legend:
Wistar rats = assay: High-dose IV toxicity of ATI-5261 in rats (plasma ALT, AST, TG, unesterified cholesterol); format: in vivo, rat
Experimental: Peptides or peptidomimetics of the invention can be evaluated for toxicity using known assays. Examples of such assays are illustrated in the Examples section. Toxicity is typically assayed in a rat, rabbit, mouse, monkey or dog model. In an illustrative assay, such as that described in Example 1, a peptide is administered intravenously using a rabbit or rat model at doses of 3, 30, and 300 mg/kg and vehicle alone is also administered at 48 hour intervals for a total of four injections. Safety chemistry panels including plasma alanine aminotransferase (ALT), aspartate amino transferase (AST), and creatine kinase (CK) can then be determined in the blood. The presence of elevated levels of these enzymes in the blood compared to control normal values is indicative of toxicity. A peptide of the invention is typically considered to be non-toxic or to have little toxicity, when the results using the highest dose, 300 mg/kg in this illustrative assay, are equivalent (fall within the standard deviation) of the values measured for the control animals that received vehicle alone, or are no more than 2 or 3 times background obtained with vehicle alone. In some embodiments, a toxicity assay is performed where the toxicity of a peptide of the invention is compared to that to ATI-5261. […]
Cytotoxicity of an HDL mimetic peptide ATI-5261 at high doses was evaluated in rats and rabbits (FIG. 1). […]

ABCA1 = target: T1, ABCA1 (Mus musculus, UniProt P41233); assay: ABCA1 protein stabilization, western blot of J774 whole-cell lysates; format: cell-based; conditions: J774 cells after cAMP treatment, continued presence of peptide
T1 construct: treated (18 h) with a cAMP analog to induce ABCA1 protein expression; endogenous in cells; host or cells: J774 macrophages
T1 sequence (P41233 whole entry): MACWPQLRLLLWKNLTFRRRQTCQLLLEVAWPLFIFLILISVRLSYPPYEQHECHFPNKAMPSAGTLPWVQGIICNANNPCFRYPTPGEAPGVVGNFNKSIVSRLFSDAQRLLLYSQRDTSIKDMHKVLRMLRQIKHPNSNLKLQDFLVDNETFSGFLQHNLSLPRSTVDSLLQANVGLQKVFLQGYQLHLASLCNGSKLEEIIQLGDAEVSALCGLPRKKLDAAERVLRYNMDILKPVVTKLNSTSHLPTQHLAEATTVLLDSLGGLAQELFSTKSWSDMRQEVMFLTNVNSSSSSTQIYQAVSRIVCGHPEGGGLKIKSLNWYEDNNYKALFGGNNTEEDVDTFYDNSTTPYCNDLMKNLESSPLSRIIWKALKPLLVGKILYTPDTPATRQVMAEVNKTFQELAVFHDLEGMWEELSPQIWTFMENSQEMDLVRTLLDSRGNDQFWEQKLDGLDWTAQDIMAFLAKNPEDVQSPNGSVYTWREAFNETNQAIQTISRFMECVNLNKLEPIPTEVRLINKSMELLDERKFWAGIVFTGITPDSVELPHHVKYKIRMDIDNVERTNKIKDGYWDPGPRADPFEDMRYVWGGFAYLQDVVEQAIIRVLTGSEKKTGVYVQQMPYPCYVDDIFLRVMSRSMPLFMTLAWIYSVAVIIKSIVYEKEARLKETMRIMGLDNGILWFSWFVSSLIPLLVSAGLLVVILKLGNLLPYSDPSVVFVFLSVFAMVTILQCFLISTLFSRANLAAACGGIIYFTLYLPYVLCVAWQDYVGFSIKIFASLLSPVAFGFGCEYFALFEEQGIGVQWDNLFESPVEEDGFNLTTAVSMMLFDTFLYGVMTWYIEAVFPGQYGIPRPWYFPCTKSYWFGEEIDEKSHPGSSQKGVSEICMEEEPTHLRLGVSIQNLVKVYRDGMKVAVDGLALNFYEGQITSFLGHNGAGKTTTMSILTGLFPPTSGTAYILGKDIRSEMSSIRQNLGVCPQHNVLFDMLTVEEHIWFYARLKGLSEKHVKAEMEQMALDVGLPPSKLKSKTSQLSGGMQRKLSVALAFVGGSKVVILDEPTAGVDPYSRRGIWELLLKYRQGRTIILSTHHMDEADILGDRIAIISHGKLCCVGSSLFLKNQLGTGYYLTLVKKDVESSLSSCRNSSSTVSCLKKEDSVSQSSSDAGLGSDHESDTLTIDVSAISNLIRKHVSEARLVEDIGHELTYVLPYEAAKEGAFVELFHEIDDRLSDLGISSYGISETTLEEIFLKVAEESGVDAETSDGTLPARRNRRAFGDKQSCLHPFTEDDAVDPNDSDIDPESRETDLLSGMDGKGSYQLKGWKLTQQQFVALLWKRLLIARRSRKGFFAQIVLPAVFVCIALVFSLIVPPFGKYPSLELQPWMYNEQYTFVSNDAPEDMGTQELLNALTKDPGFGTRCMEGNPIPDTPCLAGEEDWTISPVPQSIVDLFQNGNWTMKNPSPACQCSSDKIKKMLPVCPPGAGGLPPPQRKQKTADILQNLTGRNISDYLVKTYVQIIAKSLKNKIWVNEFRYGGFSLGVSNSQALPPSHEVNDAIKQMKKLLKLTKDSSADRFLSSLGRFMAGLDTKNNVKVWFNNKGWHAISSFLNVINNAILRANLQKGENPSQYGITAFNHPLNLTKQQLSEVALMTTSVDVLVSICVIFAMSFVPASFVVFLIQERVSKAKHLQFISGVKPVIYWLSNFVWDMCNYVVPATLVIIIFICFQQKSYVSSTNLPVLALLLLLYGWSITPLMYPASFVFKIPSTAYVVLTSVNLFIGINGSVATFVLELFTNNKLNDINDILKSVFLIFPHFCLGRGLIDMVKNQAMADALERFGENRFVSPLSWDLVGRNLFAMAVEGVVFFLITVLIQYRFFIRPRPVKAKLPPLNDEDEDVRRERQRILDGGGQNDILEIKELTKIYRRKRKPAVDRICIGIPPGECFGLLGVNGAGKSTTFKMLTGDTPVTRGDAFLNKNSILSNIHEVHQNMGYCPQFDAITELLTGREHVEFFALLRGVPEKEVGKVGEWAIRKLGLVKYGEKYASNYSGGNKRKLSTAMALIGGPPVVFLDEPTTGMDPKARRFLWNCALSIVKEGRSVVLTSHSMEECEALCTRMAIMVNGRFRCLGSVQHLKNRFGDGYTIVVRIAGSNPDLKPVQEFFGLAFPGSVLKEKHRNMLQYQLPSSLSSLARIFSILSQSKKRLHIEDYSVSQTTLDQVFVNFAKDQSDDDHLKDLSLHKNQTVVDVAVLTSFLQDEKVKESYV
Experimental: In some embodiments, the stabilization of ABCA is measured by direct measurement of ABCA (e.g., ABCA protein, or nucleic acid) using a cell based assay. Cell based assays can be performed in any cells in which ABCA is expressed (e.g., J774 macrophages), including cells which have been transfected with ABCA (e.g. HeLa cells). Any cell type can be used. For example, J774 macrophages can be used to assess relative ABCA1 protein levels in the presence and absence of polypeptides of the invention. The cells are first contacted with a compound that will induce ABCA (e.g., cAMP or a cAMP analogue such as, 8-bromo-cAMP) to upregulate ABCA (e.g., ABCA1) expression, then exposed to […] polypeptides of the invention in the absence of the cAMP stimulus to evaluate whether ABCA1 protein was stabilized or degraded. Relative levels of ABCA1 protein can be assessed using any means known in the art including, e.g., immunoblot analysis of cell membranes (Oram et al., J. Biol. Chem., 278:52379-52385 (2003)) or hybridization of nucleic acid probes to ABCA mRNA.
J774 macrophages were used for experiments. Panel A—Cells were labeled (48 h) with 3H cholesterol and treated with (right bars) and without (left bars) a cAMP analog to modulate ABCA1 expression. […]

SR-B1 = target: T2, SR-B1 (Rattus norvegicus, UniProt P97943); assay: SR-B1 mediated cholesterol efflux from Fu5AH cells; format: cell-based; conditions: 50 μg peptide/ml serum-free medium
T2 construct: endogenous in cells; host or cells: Fu5AH cells
T2 sequence (P97943 1-509): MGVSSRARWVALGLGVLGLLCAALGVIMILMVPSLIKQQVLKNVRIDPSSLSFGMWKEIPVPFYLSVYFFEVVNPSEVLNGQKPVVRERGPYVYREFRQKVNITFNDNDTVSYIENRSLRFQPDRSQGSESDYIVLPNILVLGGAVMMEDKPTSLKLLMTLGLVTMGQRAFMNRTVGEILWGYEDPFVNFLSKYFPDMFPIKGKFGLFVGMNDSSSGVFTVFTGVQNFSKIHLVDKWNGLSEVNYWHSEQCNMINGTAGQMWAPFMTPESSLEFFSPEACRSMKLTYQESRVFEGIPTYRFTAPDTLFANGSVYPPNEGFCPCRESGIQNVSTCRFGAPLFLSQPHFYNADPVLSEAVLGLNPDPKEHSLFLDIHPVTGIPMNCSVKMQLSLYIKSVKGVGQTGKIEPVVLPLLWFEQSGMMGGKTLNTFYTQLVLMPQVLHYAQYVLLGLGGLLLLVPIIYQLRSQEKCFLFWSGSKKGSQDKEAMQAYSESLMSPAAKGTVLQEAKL
Experimental: To further evaluate potential anti-atherogenic mechanisms of CS6253, Fu5AH cells labeled with [3H]cholesterol were used in efflux experiments. The citrulline form of LeuATI-5261 (CS6253) lipidated with POPC was used as a cholesterol efflux acceptor at 50 μg peptide/ml serum-free medium. Panel A-Time-course for SR-B1 mediated cholesterol efflux from cells. […] Panel B—Comparison between CS6253 and ATI-5261 in mediating cellular cholesterol efflux via SRB1. [3H]cholesterol labeled Fu5AH cells were incubated with either lipid-free acceptors or acceptors formulated with POPC.

Substance | plasma triglycerides and cholesterol (Wistar rats; male Wistar rats, IV 3, 30, 300 mg/kg) | cytotoxic response (plasma ALT and AST) (Wistar rats; male chow-fed Wistar rats, IV 3, 30 and 300 mg/kg at 48 h intervals, 4 injections) | ABCA1 protein levels (stabilization) (ABCA1) | SR-B1 mediated cholesterol efflux (SR-B1)
ATI-5261: HDL mimetic peptide, parent peptide; triglyceride elevating and muscle toxic peptide used as positive control (EVRSKLEEWFAAFREFAEEFLARLKS) [reference compound] | increased plasma triglycerides and cholesterol | induced a cytotoxic response |  | 
EVCitSKLEEWLAALCitELAEELLARLKS (SEQ ID NO:2) (EV[Cit]SKLEEWLAAL[Cit]ELAEELLARLKS) [CS6253, citrulline form of LeuATI-5261, R3,14→Citrulline, 26-mer] |  |  | maintained at high levels | relatively poor activity
